From article PMC8024894

B1: Fc‐tagged LRRTM2 (Fc fusion)
chain: CPPKCRCEKLLFYCDSQGFHSVPNATDKGSLGLSLRHNHITELERDQFASFSQLTWLHLDHNQISTVKEDAFQGLYKLKELILSSNKIFYLPNTTFTQLINLQNLDLSFNQLSSLHPELFYGLRKLQTLHLRSNSLRTIPVRLFWDCRSLEFLDLSTNRLRSLARNGFAGLIKLRELHLEHNQLTKINFAHFLRLSSLHTLFLQWNKISNLTCGMEWTWGTLEKLDLTGNEIKAIDLTVFETMPNLKILLMDNNKLNSLDSKILNSLRSLTTVGLSGNLWECSARICALASWLGSFQGRWEHSILCHSPDHTQGEDILDAVHGFQLCWNLSTTVTVMATTYRDPTTEYTKRISSSSYHVGDKEIPTTAGIAVTTEEHFPEPDNAIFTQR

Experiments:
[1] = target: endogenous neurexin on the surface of immature hippocampal neurons (mouse (endogenous in primary hippocampal neurons)) (UniProt Q9CS84); assay: immunostaining of cells or tissue; cell surface binding assay, apparent Kd: Fc protein at 0-100 nM in HEPES bath solution, 1 h at room temperature, on DIV10 hippocampal neurons transduced with CA10-FLAG lentivirus; Fc signal normalised to neurexin staining
[2] = target: endogenous neurexin on the surface of immature hippocampal neurons (mouse (endogenous in primary hippocampal neurons)) (UniProt Q9CS84); assay: immunostaining of cells or tissue; cell surface binding assay, apparent Kd: Fc protein at 0-100 nM in HEPES bath solution, 1 h at room temperature, on DIV10 hippocampal neurons transduced with control (empty vector) lentivirus; Fc signal normalised to neurexin staining

UniProt Q9CS84, sequence (Q9CS84 31-1514): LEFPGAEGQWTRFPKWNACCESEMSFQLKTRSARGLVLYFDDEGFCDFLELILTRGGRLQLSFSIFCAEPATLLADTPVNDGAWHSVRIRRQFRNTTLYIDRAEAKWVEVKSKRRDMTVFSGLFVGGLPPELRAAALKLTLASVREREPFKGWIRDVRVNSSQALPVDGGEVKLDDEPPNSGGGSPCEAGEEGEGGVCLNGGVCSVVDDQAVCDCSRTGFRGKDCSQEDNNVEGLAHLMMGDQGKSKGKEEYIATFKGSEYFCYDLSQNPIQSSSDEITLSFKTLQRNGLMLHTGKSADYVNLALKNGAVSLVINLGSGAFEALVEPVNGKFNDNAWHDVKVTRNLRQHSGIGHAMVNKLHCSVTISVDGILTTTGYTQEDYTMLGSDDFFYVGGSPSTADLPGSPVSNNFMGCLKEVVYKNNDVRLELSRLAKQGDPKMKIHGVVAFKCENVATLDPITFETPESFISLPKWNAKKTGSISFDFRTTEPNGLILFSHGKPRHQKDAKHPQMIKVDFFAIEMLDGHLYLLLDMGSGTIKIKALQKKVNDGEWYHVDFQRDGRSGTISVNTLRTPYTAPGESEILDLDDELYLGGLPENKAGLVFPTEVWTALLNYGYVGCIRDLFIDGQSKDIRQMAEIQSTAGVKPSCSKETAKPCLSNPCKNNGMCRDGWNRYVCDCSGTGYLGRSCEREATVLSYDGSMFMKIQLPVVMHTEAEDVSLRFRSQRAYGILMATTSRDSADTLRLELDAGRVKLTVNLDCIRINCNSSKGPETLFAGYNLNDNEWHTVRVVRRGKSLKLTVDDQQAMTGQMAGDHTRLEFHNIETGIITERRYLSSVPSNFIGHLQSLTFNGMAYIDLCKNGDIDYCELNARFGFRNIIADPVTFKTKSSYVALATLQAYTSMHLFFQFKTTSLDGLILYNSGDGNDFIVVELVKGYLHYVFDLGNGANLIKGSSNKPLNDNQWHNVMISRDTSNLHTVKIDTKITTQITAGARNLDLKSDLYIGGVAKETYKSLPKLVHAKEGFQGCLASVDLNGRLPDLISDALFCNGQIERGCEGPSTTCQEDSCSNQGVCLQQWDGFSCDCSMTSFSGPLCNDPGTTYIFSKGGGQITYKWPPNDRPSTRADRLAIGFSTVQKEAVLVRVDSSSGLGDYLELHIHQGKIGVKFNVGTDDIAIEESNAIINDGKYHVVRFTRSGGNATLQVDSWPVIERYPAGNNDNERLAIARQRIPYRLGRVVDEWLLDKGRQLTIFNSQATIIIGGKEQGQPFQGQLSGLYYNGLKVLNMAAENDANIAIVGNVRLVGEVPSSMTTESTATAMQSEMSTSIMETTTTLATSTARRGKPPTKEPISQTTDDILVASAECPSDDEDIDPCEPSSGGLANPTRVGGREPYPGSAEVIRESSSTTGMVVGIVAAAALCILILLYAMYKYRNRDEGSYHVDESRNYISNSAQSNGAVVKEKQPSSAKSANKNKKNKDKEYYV

| Molecule | Kd [1] [nM] | Kd [2] [nM] |
| --- | --- | --- |
| Fc‐tagged Nlgn1 (Fc fusion) | 223 | 186 |
| B1 | 35.3 | 29.5 |
